One assay addresses T1, TLN1-F3^K402E (UniProt P26039 305-405, K402E).
T1 construct: source: E. coli (DE3) Rosetta 2, purified (IMAC, SEC); not shown: His10, N-terminal, cleaved; SUMO, N-terminal, cleaved
Description: NMR titration; isotope-labelled β1-CT observed; TLN1-F3 and ΔKIND2 (wild type or K402E / Y13A) added together, ternary complex; 20 mM Tris, 200 mM NaCl, 1 mM DTT, pH 7.5, 298 K. The following applies: both partners purified.

The target in assay [1] is T2, F3 domain of TLN1 (TLN1-F3) (UniProt P26039 305-405).
T2 construct: Used unlabelled, 15N-labelled or partially deuterated in NMR; also called T1-F3; source: E. coli (DE3) Rosetta 2, purified (IMAC, SEC); not shown: His10, N-terminal, cleaved; SUMO, N-terminal, cleaved
Description: NMR titration; isotope-labelled β1-CT observed (1H-15N HSQC, 1H-13C methyl correlations); unlabelled TLN1-F3 or ΔKIND2 added alone at increasing stoichiometries; 20 mM Tris, 200 mM NaCl, 1 mM DTT, pH 7.5, 298 K. The following applies: both partners purified.

The target of assay [2] is T3, KIND2^Y13A (UniProt Q8CIB5 1-680, Y13A).
T3 construct: kindlin-2 (KIND2) with Y13A; In FC-RDA a copy labelled with Alexa 647 was the reporter; also called 647–KIND2^Y13A; source: E. coli Rosetta, purified (IMAC, SEC); not shown: His10, N-terminal, cleaved; SUMO, N-terminal, cleaved
T3 sequence (looked up): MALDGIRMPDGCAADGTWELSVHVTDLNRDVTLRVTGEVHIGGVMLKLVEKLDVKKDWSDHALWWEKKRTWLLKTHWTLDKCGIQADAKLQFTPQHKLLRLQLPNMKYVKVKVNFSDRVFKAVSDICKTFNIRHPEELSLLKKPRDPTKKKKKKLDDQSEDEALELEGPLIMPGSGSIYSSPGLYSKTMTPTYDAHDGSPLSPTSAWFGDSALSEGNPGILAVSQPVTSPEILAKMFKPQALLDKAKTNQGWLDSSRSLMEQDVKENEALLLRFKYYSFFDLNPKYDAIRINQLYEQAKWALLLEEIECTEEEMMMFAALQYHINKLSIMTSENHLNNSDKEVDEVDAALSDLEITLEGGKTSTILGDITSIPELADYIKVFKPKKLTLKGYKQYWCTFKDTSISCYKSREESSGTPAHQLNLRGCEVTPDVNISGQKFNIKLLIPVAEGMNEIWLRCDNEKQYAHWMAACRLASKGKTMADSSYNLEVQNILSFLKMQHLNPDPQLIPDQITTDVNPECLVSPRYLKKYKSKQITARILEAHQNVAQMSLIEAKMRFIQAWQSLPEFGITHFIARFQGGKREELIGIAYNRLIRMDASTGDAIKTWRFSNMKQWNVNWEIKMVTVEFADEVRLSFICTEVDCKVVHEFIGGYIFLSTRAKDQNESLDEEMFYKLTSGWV
Description: MST; ATTO 488-labelled β-CT peptide (50–200 nM) held constant, one unlabelled protein titrated; 20 mM Tris pH 7.5, 200 mM NaCl, 1 mM TCEP, 0.05% Tween-20; apparent affinities (near-saturation only). The following applies: both partners purified.

For assay [3], the target named is T4, talin-1 head domain (THD1) (UniProt P26039 1-405).
T4 construct: talin-1 (TLN1) head domain (F0-F3), residues 1-405; In FC-RDA a copy labelled with ATTO 565 (565–THD1) was the reporter; also called 565–THD1; source: E. coli (DE3) Rosetta 2, purified (IMAC, SEC); not shown: His10, N-terminal, cleaved; SUMO, N-terminal, cleaved
The assay is described as above. As to conditions: both partners purified.

Assay [4] addresses T5, THD1^K402E (UniProt P26039 1-405, K402E).
T5 construct: talin-1 (TLN1) head domain, residues 1-405, with K402E; In FC-RDA a copy labelled with ATTO 565 was the reporter; also called 565–THD1^K402E; source: E. coli (DE3) Rosetta 2, purified (IMAC, SEC); not shown: His10, N-terminal, cleaved; SUMO, N-terminal, cleaved
Described as above. As to conditions: both partners purified.

For assay [5], the target named is T6, talin-2 head domain (THD2) (UniProt Q71LX4 1-408).
T6 construct: talin-2 (TLN2) head domain, residues 1-408; source: E. coli (DE3) Rosetta 2, purified (IMAC, SEC); not shown: His10, N-terminal, cleaved; SUMO, N-terminal, cleaved
The assay is described as above. As to conditions: both partners purified.

The target in assay [6] is T7, kindlin-2 (KIND2) (UniProt Q8CIB5 1-680).
T7 construct: kindlin-2 (KIND2) without the deletions of ΔKIND2; In FC-RDA a copy labelled with Alexa 647 (647–KIND2) was the reporter; also called 647–KIND2; source: E. coli Rosetta, purified (IMAC, SEC); not shown: His10, N-terminal, cleaved; SUMO, N-terminal, cleaved
T7 sequence (looked up): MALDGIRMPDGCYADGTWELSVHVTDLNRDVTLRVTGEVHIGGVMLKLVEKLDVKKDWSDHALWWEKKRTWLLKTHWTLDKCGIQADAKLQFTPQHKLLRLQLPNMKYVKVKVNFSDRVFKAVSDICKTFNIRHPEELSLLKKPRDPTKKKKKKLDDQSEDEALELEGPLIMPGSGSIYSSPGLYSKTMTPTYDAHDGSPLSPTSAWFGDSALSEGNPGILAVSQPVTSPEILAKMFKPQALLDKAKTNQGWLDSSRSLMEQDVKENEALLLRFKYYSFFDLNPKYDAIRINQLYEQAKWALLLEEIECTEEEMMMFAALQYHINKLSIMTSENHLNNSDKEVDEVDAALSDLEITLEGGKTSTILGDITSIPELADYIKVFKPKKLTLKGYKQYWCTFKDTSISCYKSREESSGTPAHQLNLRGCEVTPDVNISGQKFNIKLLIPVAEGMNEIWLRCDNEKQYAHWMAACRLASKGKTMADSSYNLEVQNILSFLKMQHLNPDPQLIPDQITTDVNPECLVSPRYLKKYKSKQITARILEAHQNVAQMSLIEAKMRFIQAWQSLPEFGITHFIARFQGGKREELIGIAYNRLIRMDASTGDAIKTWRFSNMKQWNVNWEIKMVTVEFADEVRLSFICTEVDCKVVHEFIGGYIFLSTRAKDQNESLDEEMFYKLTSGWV
Described as above. The following applies: both partners purified.

Assay [7] concerns the target T8, KIND2 lacking the flexible loop in F1 and the PH domain (ΔKIND2).
T8 chain: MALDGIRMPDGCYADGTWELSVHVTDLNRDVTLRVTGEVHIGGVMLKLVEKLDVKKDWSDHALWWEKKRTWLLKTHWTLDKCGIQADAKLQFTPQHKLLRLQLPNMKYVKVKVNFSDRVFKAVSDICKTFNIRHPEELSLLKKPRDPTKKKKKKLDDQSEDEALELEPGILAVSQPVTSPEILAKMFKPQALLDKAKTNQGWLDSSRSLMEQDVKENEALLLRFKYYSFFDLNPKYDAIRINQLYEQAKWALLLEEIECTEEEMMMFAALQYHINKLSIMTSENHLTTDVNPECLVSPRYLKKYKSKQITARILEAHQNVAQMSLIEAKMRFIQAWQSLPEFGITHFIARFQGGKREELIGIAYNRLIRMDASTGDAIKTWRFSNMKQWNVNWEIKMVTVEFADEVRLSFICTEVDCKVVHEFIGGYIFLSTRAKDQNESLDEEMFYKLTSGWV
In words: MST.

The target of assay [8] is T9, F3 domain of TLN2 (TLN2-F3) (UniProt Q71LX4 311-408).
T9 chain: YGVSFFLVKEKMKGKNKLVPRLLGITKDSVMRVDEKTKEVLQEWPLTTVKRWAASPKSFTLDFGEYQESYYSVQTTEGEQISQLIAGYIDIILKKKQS
Description: MST.

In assay [9] the target is T10, F3 domain of TLN1 (TLN1-F3) (UniProt P26039 305-405).
T10 chain: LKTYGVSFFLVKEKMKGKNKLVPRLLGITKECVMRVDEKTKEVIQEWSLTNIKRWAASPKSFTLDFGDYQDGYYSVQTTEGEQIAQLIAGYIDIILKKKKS
Description: MST.

Assay [10] concerns the target T3, KIND2^Y13A. Description: flow cytometry-based reporter-displacement assay (FC-RDA) on beads; biotinylated TM–CT in nanodiscs (10% PIP2 or PIP3, 90% DMPC) on streptavidin Dynabeads; reporters 100 nM 565–THD1 or 50 nM 647–KIND2; unlabelled THD1 or KIND2 titrated; 20 mM Tris pH 7.5, 200 mM NaCl, 10 min at room temperature; the lipids add to the binding. The following applies: both partners purified. (In general: A flow cytometer gives signals particle by particle.)

The target in assay [11] is T4, talin-1 head domain (THD1). The assay is described as above. As to conditions: both partners purified.
For assay [12], the target named is T5, THD1^K402E. Described as above. The following applies: both partners purified.
For assay [13], the target named is T7, kindlin-2 (KIND2). Described as above. As to conditions: both partners purified.

Where “and” joins values, the source holds several entries; their conditions need not be identical. Equal entries are not always repeated. No end group written: not given here.

T5 sequence (P26039 1-405 K402E): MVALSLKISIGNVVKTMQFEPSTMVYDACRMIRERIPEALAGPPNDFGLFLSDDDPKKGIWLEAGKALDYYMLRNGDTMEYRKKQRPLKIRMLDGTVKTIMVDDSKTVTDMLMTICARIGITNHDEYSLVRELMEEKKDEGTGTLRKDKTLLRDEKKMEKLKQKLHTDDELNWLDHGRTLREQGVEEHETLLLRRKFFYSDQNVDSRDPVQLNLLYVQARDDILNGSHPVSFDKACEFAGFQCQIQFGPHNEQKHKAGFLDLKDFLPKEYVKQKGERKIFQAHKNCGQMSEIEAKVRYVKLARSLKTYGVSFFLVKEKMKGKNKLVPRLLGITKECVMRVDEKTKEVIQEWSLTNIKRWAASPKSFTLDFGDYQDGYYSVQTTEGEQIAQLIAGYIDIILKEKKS

B1: integrin β1A cytoplasmic tail (β1-CT), recombinant (peptide, UniProt P05556-1 758-798, looked up)
chain: HDRREFAKFEKEKMNAKWDTGENPIYKSAVTTVVNPKYEGK
notes: integrin β1, splice isoform A, cytoplasmic tail, residues 758-798; DNA synthesised; 15N-, 13C,15N- or 2H,13C,15N-labelled when observed by NMR; also called β1A-CT; integrin-β1-CT; source: E. coli (DE3) Rosetta 2 in M9 medium, purified (IMAC, cation exchange); not shown: His10, N-terminal, cleaved; SUMO, N-terminal, cleaved
With B1, the binding result (with TLN1-F3^K402E; in assay [1]) was “binds” throughout.

B2: ATTO 488-labelled β3-CT (488–β3-CT) (peptide, UniProt O54890 741-787, looked up)
peptide: {ATTO 488}-KLLITIHDRKEFAKFEEERARAKWDTANNPLYKEATSTFTNITYRGT
notes: integrin β3 cytoplasmic tail; source: synthetic peptide (MPIB Core Facility)
In the case of B2, the Kd with KIND2^Y13A [2] is 9 µM; in assay [3] it was 108 µM and 105 µM; with THD1^K402E [4], 34 µM; in assay [5] it was 39 µM; with kindlin-2 (KIND2) [6] it was 9 µM; in assay [7] it was 6.8 µM. In addition, the Kd in assay [8] was determined as 98 µM; in assay [9], 106 µM.

B3: β3 transmembrane and cytoplasmic tail polypeptide (β3-TM–CT) in nanodiscs (domain or fragment, UniProt O54890 715-787, looked up)
chain: GPDILVVLLSVMGAILLIGLATLLIWKLLITIHDRKEFAKFEEERARAKWDTANNPLYKEATSTFTNITYRGT
modifications: biotin (biotin-maleimide)
notes: integrin β3 transmembrane helix and cytoplasmic tail, residues 715-787; Embedded in nanodiscs of 10% PIP2 or PIP3 and 90% DMPC; held on streptavidin beads by the biotin; source: E. coli BL21 (DE3) Rosetta 2, inclusion bodies, purified (IMAC, cation exchange), put into MSP2N2 nanodiscs
With B3, the binding result (with KIND2^Y13A [10]; in assay [11]; with THD1^K402E [12]; with kindlin-2 (KIND2) [13]) was “binds” each time.

The record behind these values is paper PMC10716038, “Talin and kindlin use integrin tail allostery and direct binding to activate integrins” (Nature Structural & Molecular Biology, 2023).
